Laboratory results reported in PMC7460845, “A Fungal Ascorbate Oxidase with Unexpected Laccase Activity” (International Journal of Molecular Sciences, 2020).

Columns and labels:
[1] = substrate: CCn1c(=NN=c2sc3cc(S(=O)(=O)O)ccc3n2CC)sc2cc(S(=O)(=O)O)ccc21; experiment: spectrophotometric ABTS oxidation, plate reader, Lineweaver-Burk; type: biochemical, Aspergillus flavus; details: 0.1 M citrate buffer pH 3.4, 25 °C, 0.5 to 20 mM substrate, oxygen as co-substrate
purified protein = substrate: O=C1O[C@H]([C@@H](O)CO)C(O)=C1O; experiment: purified protein; type: biochemical, Aspergillus flavus; details: pH 5.0, 30 °C, 0.05 to 1 mM substrate, oxygen as co-substrate

B1: Af_AO1 (Aspergillus flavus NRRL3357) (protein)
chain: HLVLHDDSFQPDHILRVTAQDVNQACMDRYSVLINGSLPGPQLNIQEGKVNWIRVYNDMEDLNVTMHWHGLSAFTAPFSDGTPMASQWPIPPGHFFDYEVRPEVGYAGTYFYHSHVGFQALTAWGALIVESAQPSPYQYDEERIIALSDFFTKTDEEIENGLTSTNFTWSGETSAVLVNGQGRLATNATGSCKLAAISVEPGKTYRLRFIGATALSFVSISLESHDVLEIIEADGHYTKPVNTSYLQISSGQRYSVLLKAKTEAELQQAKSRQFYFQLTTMGRPTVLTTFAVLEYPSPTTTDLITVPVTPPLPVANITYGWLDYTLEPYYPDLDFPTVEEVTRRIIINVHQNISDRTVWLQNGYDWVETFPKSPYLVDIYAGTLDLDASYKRAIASGYAFDNQTRLFPAKMGEVLEIVWQNQGAVSNGGVENHPFHAHGRHFYDIGGGDGLYNLTENEARLKGTHPVIRDTTMLYAYRKTTTALEPSGWRAWRIRVTAAGVWMVHCHVLQHMLMGMQTAFAFGDQTAIKAQSGTPAEGYLTYGGSAYGNVTHFPPVKHFFN
notes: natural signal peptide removed, no tag; codon-optimized gene in pPicZalphaB, secreted from Pichia pastoris KM71H; model target 561 residues
Km [1]: 1890 ± 120 µM | Km (purified protein): 160 ± 30 µM
